Results on ten molecules are retold here after patent US20240400697A1 (NATIONAL RESEARCH COUNCIL OF CANADA, published 2024).

Residue numbers refer to the chain shown, from its start. Names may count otherwise.

Assay [1] has as its target epidermal growth factor receptor variant III (EGFRvIII) (human) (UniProt P00533). In words: flow cytometry on U87MG-EGFRvIII cells, apparent KD (KD-app), mean of several experiments.
Assay [2] concerns the target T1, wild-type epidermal growth factor receptor (EGFR wt) (human, UniProt P00533 25-1210).
T1 construct: whole, on cells; also called wt EGFR; WT EGFR
In words: flow cytometry on U87MG-EGFR wt cells. How it is done:
Cells overexpressing full length wt EGFR or EGFRvIII were obtained from the laboratory of W. Cavanee (Ludwig Institute for Cancer Research, University of California at San Diego). Cells were grown in DMEM high glucose medium containing 10% FBS and 400 μg/ml G418.
Prior to analysis, cells were plated such that they were not more than 80% confluent on the day of analysis. Unless otherwise stated, all media are kept are 4° C. and all incubations are performed on wet ice. Cells were washed in PBS, harvested by the addition of cell dissociation buffer (Sigma), centrifuged and resuspended in complete medium at a cell density of 2×10⁶ cells/mL. […] Cells were washed twice by centrifugation and further incubated with a FITC labeled F(ab′)₂ goat anti-mouse antibody (Fc specific, #115-096-071, Jackson Immunoresearch, Cedarlane) for an hour. Cells were washed and re-suspended in medium containing Propidium iodide to exclude dead cells from analysis. Samples were filtered through a 60 μm nylon mesh filter plate (Millipore) to remove cell aggregates. Flow cytometry analyses were performed on 2,000 viable single-cells events gated on forward scattering, side scattering parameters and propidium iodide dye exclusion using a BD-LSRFortessa flow cytometer (Becton-Dickinson Biosciences) and a standard filter set using BD FACSDiva™ acquisition software, according to manufacturer's instructions.
In general terms: In flow cytometry, cells or beads pass a laser one at a time.

B1: humanized 4E11 antibody hH2-hL2 (antibody, human IgG4 S228P, kappa, V domains shown)
VH: QVQLQESGPGLVKPSQTLSLTCTVSGYSITSDYAWNWIRQPPGKGLEWIGYIGYNGRTSYNPSLKSRVTISRDTSKNQFSLKLSSVTAADTAVYYCARLGRGFAYWGQGTLVTVSS
VL: DIQMTQSPSSLSASVGDRVTITCHASQGINSNIGWLQQKPGKAPKGLIYHGTNLEDGVPSRFSGSGSGTDYTLTISSLQPEDFATYYCVQYAQFPYTFGQGTKLEIKR
As for B1, the Kd in assay [1] stood at 10.5 nM.

B2: humanized 4E11 antibody hH1-hL2 (antibody, human IgG4 S228P, kappa, V domains shown)
VH: B1 VH with R72V
VL: B1 VL
B2: the Kd in assay [1] was 23 nM.

B3: humanized 4E11 antibody hH3-hL2 (antibody, human IgG4 S228P, kappa, V domains shown)
VH: B1 VH with I49M, V68I
VL: B1 VL
notes: Human IgG4(S228P), C-terminal Lys deleted, human kappa; made in CHO cells; 16) for this name; 17
In the case of B3, the “Bmax @ 300 nM (MFI)” value in assay [2] is 160 MFI. In addition, the Kd in assay [1] was found to be 7.9 nM.

B4: humanized 4E11 antibody hH1-hL1 (antibody, human IgG4 S228P, kappa, V domains shown)
VH: B1 VH with R72V
VL: B1 VL with L36Y, G46L
On to B4, for which, in assay [1], the Kd amounted to 9.7 nM.

B5: humanized 4E11 antibody hH1-hL3 (antibody, human IgG4 S228P, kappa, V domains shown)
VH: B1 VH with R72V
VL: B1 VL with P44F
For B5, the Kd in assay [1] is 15.7 nM.

B6: humanized 4E11 antibody hH2-hL3 (antibody, human IgG4 S228P, kappa, V domains shown)
VH: B1 VH
VL: B1 VL with P44F
notes: Human IgG4(S228P), C-terminal Lys deleted, human kappa; made in CHO cells; 17) for this name; 18
Regarding B6, the “Bmax @ 300 nM (MFI)” value in assay [2] amounted to 1420 MFI. For the same molecule, the Kd in assay [1] came out at 7.2 nM.

B7: humanized 4E11 antibody hH3-hL3 (antibody, human IgG4 S228P, kappa, V domains shown)
VH: B1 VH with I49M, V68I
VL: B1 VL with P44F
notes: as for B6
Consider B7, for which the “Bmax @ 300 nM (MFI)” value in assay [2] was 1370 MFI. In assay [1], the Kd is 7.1 nM.

B8: humanized 4E11 antibody hH2-hL1 (antibody, human IgG4 S228P, kappa, V domains shown)
VH: B1 VH
VL: B1 VL with L36Y, G46L
notes: Human IgG4(S228P), C-terminal Lys deleted, human kappa; made in CHO cells; 16) for this name; 16
Turning to B8, the “Bmax @ 300 nM (MFI)” value in assay [2] came out at 319 MFI. The Kd in assay [1] stood at 5.8 nM.

B9: humanized 4E11 antibody hH3-hL1 (antibody, human IgG4 S228P, kappa, V domains shown)
VH: B1 VH with I49M, V68I
VL: B1 VL with L36Y, G46L
notes: Human IgG4(S228P), C-terminal Lys deleted, human kappa; made in CHO cells; 18) for this name; 16
As for B9, the “Bmax @ 300 nM (MFI)” value in assay [2] stood at 164 MFI. Besides, the Kd in assay [1] was 4.9 nM.

B10: chimeric 4E11 antibody cH-cL (antibody, human IgG4 S228P, kappa, V domains shown)
VH: DVQLQESGPGLVKPSQSLSLTCTVTGYSITSDYAWNWIRQFPGNKLEWMGYIGYNGRTSYNPSLKSRISITRDTSKNQFFLQLNYVTTEDTATFYCARLGRGFAYWGQGTLVTVSA
VL: DILMTQSPSSMSVSLGDTVSITCHASQGINSNIGWLLQKPGKSFKGLIYHGTNLEDGVPSRFSGSGSGTDYSLTISSLESEDFADYYCVQYAQFPYTFGGGTKLEIKR
notes: Murine 4E11 V regions on human IgG4(S228P) heavy chain, C-terminal Lys deleted, and human kappa light chain; made in CHO cells; also called chimeric variant
Turning to B10, the “Bmax @ 300 nM (MFI)” value in assay [2] is 525 MFI.
